What is called Kd is the equilibrium constant for the complex coming apart. A higher Kd goes with lower affinity.

This experiment deals with M53 protein (Streptococcus pyogenes) (UniProt P49054). Briefly: SPR; screen: 200 nM Plg injected for 2100 s at 10 μL/min over immobilised Mrp or control M protein, 900 s dissociation; no Fg. Background: Surface plasmon resonance follows binding to a sensor surface in real time, without labels.
Chain of UniProt P49054 (P49054 30-384): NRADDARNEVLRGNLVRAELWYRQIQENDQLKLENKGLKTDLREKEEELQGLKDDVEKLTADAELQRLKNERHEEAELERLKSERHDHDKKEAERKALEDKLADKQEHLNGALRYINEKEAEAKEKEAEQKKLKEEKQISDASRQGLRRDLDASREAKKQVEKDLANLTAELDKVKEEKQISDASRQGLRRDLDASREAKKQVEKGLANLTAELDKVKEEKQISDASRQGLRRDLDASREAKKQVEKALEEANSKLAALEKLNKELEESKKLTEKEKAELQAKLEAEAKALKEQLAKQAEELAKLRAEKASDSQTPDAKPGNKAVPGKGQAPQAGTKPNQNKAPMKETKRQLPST

For human Glu-plasminogen (natural protein), the Kd is less than 50 nM.

Values taken from publication PMC11917135.
